In US11459578B2, “Carbon fixation systems in plants and algae” (NMC, INC., priority 2014, dated 2022):

B1: hCAXII: human α-carbonic anhydrase isoenzyme XII (protein, UniProt O43570 25-354, looked up)
Carbonic anhydrase 12: APVNGSKWTYFGPDGENSWSKKYPSCGGLLQSPIDLHSDILQYDASLTPLEFQGYNLSANKQFLLTNNGHSVKLNLPSDMHIQGLQSRYSATQLHLHWGNPNDPHGSEHTVSGQHFAAELHIVHYNSDLYPDASTASNKSEGLAVLAVLIEMGSFNPSYDKIFSHLQHVKYKGQEAFVPGFNIEELLPERTAEYYRYRGSLTTPPCNPTVLWTVFRNPVQISQEQLLALETALYCTHMDDPSPREMINNFRQVQKFDERLVYTSFSQVQVCTAAGLSLGIILSLALAGILGICIVVVVSIWLFRRKSIKKGDNKGVIYKPATKMETEAHA
B2: hCAVII: human α-carbonic anhydrase isoenzyme VII (protein, UniProt P43166 1-264, looked up)
Carbonic anhydrase 7: MTGHHGWGYGQDDGPSHWHKLYPIAQGDRQSPINIISSQAVYSPSLQPLELSYEACMSLSITNNGHSVQVDFNDSDDRTVVTGGPLEGPYRLKQFHFHWGKKHDVGSEHTVDGKSFPSELHLVHWNAKKYSTFGEAASAPDGLAVVGVFLETGDEHPSMNRLTDALYMVRFKGTKAQFSCFNPKCLLPASRHYWTYPGSLTTPPLSESVTWIVLREPICISERQMGKFRSLLFTSEDDERIHMVNNFRPPQPLKGRVVKASFRA
B3: hCAVB: human α-carbonic anhydrase isoenzyme VB (protein, UniProt Q9Y2D0 34-317, looked up)
Carbonic anhydrase 5B, …: CSLYTCTYKTRNRALHPLWESVDLVPGGDRQSPINIRWRDSVYDPGLKPLTISYDPATCLHVWNNGYSFLVEFEDSTDKSVIKGGPLEHNYRLKQFHFHWGAIDAWGSEHTVDSKCFPAELHLVHWNAVRFENFEDAALEENGLAVIGVFLKLGKHHKELQKLVDTLPSIKHKDALVEFGSFDPSCLMPTCPDYWTYSGSLTTPPLSESVTWIIKKQPVEVDHDQLEQFRTLLFTSEGEKEKRMVDNFRPLQPLMNRTVRSSFRHDYVLNVQAKPKPATSQATP
B4: hCAXV: α-carbonic anhydrase isoenzyme XV (protein, UniProt Q99N23 19-324, looked up)
Carbonic anhydrase 15: VDSSGTWCYDSQDPKCGPAHWKELAPACGGPTQSPINIDLRLVQRDYTLKPFIFQGYDSAPQDPWVLENDGHTVLLRVNSCQQNCPAIRGAGLPSPEYRLLQLHFHWGSPGHQGSEHSLDEKHGSMEMHMVHMNTKYQSMEDARSQPDGFAILAVLLVEEDRDNTNFSAIVSGLKNLSSPGVAVNLTSTFALASLLPSALRLLRYYRYSGSLTTPGCEPAVLWTVFENTVPIGHAQVVQFQAVLQTGPPGLHPRPLTSNFRPQQPLGGRRISASPEASVRSSVSTLPCLHLALVGLGVGLRLWQGP
B5: hCAVA: human α-carbonic anhydrase isoenzyme VA (protein, UniProt P35218 39-305, looked up)
Carbonic anhydrase 5A, …: CAWQTSNNTLHPLWTVPVSVPGGTRQSPINIQWRDSVYDPQLKPLRVSYEAASCLYIWNTGYLFQVEFDDATEASGISGGPLENHYRLKQFHFHWGAVNEGGSEHTVDGHAYPAELHLVHWNSVKYQNYKEAVVGENGLAVIGVFLKLGAHHQTLQRLVDILPEIKHKDARAAMRPFDPSTLLPTCWDYWTYAGSLTTPPLTESVTWIIQKEPVEVAPSQLSAFRTLLFSALGEEEKMMVNNYRPLQPLMNRKVWASFQATNEGTRS
B6: hCAIII: human α-carbonic anhydrase isoenzyme III (protein, UniProt P07451 2-260, looked up)
Carbonic anhydrase 3: AKEWGYASHNGPDHWHELFPNAKGENQSPVELHTKDIRHDPSLQPWSVSYDGGSAKTILNNGKTCRVVFDDTYDRSMLRGGPLPGPYRLRQFHLHWGSSDDHGSEHTVDGVKYAAELHLVHWNPKYNTFKEALKQRDGIAVIGIFLKIGHENGEFQIFLDALDKIKTKGKEAPFTKFDPSCLFPACRDYWTYQGSFTTPPCEECIVWLLLKEPMTVSSDQMAKLRSLLSSAENEPPVPLVSNWRPPQPINNRVVRASFK
B7: hCAXIV: human α-carbonic anhydrase isoenzyme XIV (protein, UniProt Q9ULX7 16-337, looked up)
Carbonic anhydrase 14: ADGGQHWTYEGPHGQDHWPASYPECGNNAQSPIDIQTDSVTFDPDLPALQPHGYDQPGTEPLDLHNNGHTVQLSLPSTLYLGGLPRKYVAAQLHLHWGQKGSPGGSEHQINSEATFAELHIVHYDSDSYDSLSEAAERPQGLAVLGILIEVGETKNIAYEHILSHLHEVRHKDQKTSVPPFNLRELLPKQLGQYFRYNGSLTTPPCYQSVLWTVFYRRSQISMEQLEKLQGTLFSTEEEPSKLLVQNYRALQPLNQRMVFASFIQAGSSYTTGEMLSLGVGILVGCLCLLLAVYFIARKIRKKRLENRKSVVFTSAQATTEA
B8: hCAIV: human α-carbonic anhydrase isoenzyme IV (protein, UniProt P22748 19-284, looked up)
Carbonic anhydrase 4: AESHWCYEVQAESSNYPCLVPVKWGGNCQKDRQSPINIVTTKAKVDKKLGRFFFSGYDKKQTWTVQNNGHSVMMLLENKASISGGGLPAPYQAKQLHLHWSDLPYKGSEHSLDGEHFAMEMHIVHEKEKGTSRNVKEAQDPEDEIAVLAFLVEAGTQVNEGFQPLVEALSNIPKPEMSTTMAESSLLDLLPKEEKLRHYFRYLGSLTTPTCDEKVVWTVFREPIQLHREQILAFSQKLYYDKEQTVSMKDNVRPLQQLGQRTVIKS
B9: HLA3: Chlamydomonas plasma membrane-localized and ATP-dependent bicarbonate transporter, expressed in transgenic plants (protein, listed as Chlamydomonas reinhardtii)
chain: MLPGLGVILLVLPMQYYFGYKIVQIKLQNAKHVALRSAIMQEVLPAIKLVKYYAWEQFFENQISKVRREEIRLNFWNCVMKVINVACVFCVPPMTAFVIFTTYEFQRARLVSSVAFTTLSLFNILRFPLVVLPKALRAVSEANASLQRLEAYLLEEVPSGTAAVKTPKNAPPGAVIENGVFHHPSNPNWHLHVPKFEVKPGQVVAVVGRIAAGKSSLVQAILGNMVKEHGSFNVGGRISYVPQNPWLQNLSLRDNVLFGEQFDENKYTDVIESCALTLDLQILSNGDQSKAGIRGVNFSGGQRQRVNLARCAYADADLVLLDNALSAVDHHTAHHIFDKCIKGLFSDKAVVLVTHQIEFMPRCDNVAIMDEGRCLYFGKWNEEAQHLLGKLLPITHLLHAAGSQEAPPAPKKKAEDKAGPQKSQSLQLTLAPTSIGKPTEKPKDVQKLTAYQAALIYTWYGNLFLVGVCFFFFLAAQCSRQISDFWVRWWVNDEYKKFPVKGEQDSAATTFYCLIYLLLVGLFYIFMIFRGATFLWWVLKSSETIRRKALHNVLNAPMGFFLVTPVGDLLLNFTKDQDIMDENLPDAVHFMGIYGLILLATTITVSVTINFFAAFTGALIIMTLIMLSIYLPAATALKKARAVSGGMLVGLVAEVLEGLGVVQAFNKQEYFIEEAARRTNITNSAVFNAEALNLWLAFWCDFIGACLVGVVSAFAVGMAKDLGGATVGLAFSNIIQMLVFYTWVVRFISESISLFNSVEGMAYLADYVPHDGVFYDQRQKDGVAKQIVLPDGNIVPAASKVQVVVDDAALARWPATGNIRFEDVWMQYRLDAPWALKGVTFKINDGEKVGAVGRTGSGKSTTLLALYRMFELGKGRILVDGVDIATLSLKRLRTGLSIIPQEPVMFTGTVRSNLDPFGEFKDDAILWEVLKKVGLEDQAQHAGGLDGQVDGTGGKAWSLGQMQLVCLARAALRAVPILCLDEATAAMDPHTEAIVQQTIKKVFDDRTTITIAHRLDTIIESDKIIVMEQGSLMEYESPSKLLANRDSMFSKLVDKTGPAAAAALRKMAEDFWSTRSAQGRNQ
B10: hCAVI: human α-carbonic anhydrase isoenzyme VI (protein, UniProt P23280 18-308, looked up)
Carbonic anhydrase 6: QHVSDWTYSEGALDEAHWPQHYPACGGQRQSPINLQRTKVRYNPSLKGLNMTGYETQAGEFPMVNNGHTVQISLPSTMRMTVADGTVYIAQQMHFHWGGASSEISGSEHTVDGIRHVIEIHIVHYNSKYKSYDIAQDAPDGLAVLAAFVEVKNYPENTYYSNFISHLANIKYPGQRTTLTGLDVQDMLPRNLQHYYTYHGSLTTPPCTENVHWFVLADFVKLSRTQVWKLENSLLDHRNKTIHNDYRRTQPLNHRVVESNFPNQEYTLGSEFQFYLHKIEEILDYLRRALN

Tests used:
[1] = molecular target: α-CAs found in mammals; details: inhibitor not named; cited from earlier work
[2] = cited from earlier work
[3] = system: Camelina; assay: Growth phenotypes and seed recovery of transgenic Camelina; assay type: in vivo
Text: (§1) Previously, reconstitution of a functional inorganic CCM in C3 plants to suppress photorespiration and enhance photosynthesis was proposed. In WO 2012/125737, it was hypothesized that expression of a minimum of three algal CCM proteins would be sufficient to elevate internal plastid CO2 concentrations high enough to suppress photorespiration. These three algal CCM genes included the Chlamydomonas plasma membrane-localized and ATP-dependent bicarbonate transporter, HLA3; the chloroplast envelope localized bicarbonate anion transporter, LCIA; and a chloroplast stromal-localized carbonic anhydrase (HCA-II) to accelerate conversion of bicarbonate into CO2. […] To test this hypothesis, we generated multiple independent transgenic Arabidopsis and Camelina plants expressing each CCM gene as a single gene construct, as well as a stacked 3-gene construct. The expression of each gene was controlled by the light-regulated Cab1 gene promoter.

[4] = system: Arabidopsis; assay: Growth phenotypes of transgenic Arabidopsis; assay type: in vivo
Text: as §1
Finally, we also grew transgenics on ammonium with sucrose which would presumably provide additional ATP via respiration. We hypothesized that growth on nitrate or ammonium with sucrose would provide additional ATP that could potentially drive HLA3 activity.

| Molecule | Ki [1] | Km [2] | also measured |
| --- | --- | --- | --- |
| hCAI: human α-carbonic anhydrase isoenzyme I | 250 nM | 4 mM | – |
| hCAXIII: human α-carbonic anhydrase isoenzyme XIII | 16 nM | 13.8 mM | – |
| B1 | 5.7 nM | 12 mM | – |
| B2 | 2.5 nM | 11.4 mM | – |
| B3 | 54 nM | 9.7 mM | – |
| B4 | 72 nM | 14.2 mM | – |
| B5 | 63 nM | 10 mM | – |
| B6 | 200000 nM | 33.3 mM | – |
| B7 | 41 nM | 7.9 mM | – |
| B8 | 74 nM | 21.5 mM | – |
| B9 | – | – | growth phenotype / viability relative to WT [3]: no viable seeds were recovered; growth phenotype relative to WT [4]: reduced growth phenotypes; growth in the presence of ammonium ([4]; ammonium): none of the Arabidopsis HLA3 transgenics (4 independent lines) grew; growth on ammonium with sucrose ([4]; ammonium plus sucrose): rescued; growth on nitrate ([4]; nitrate): survived |
| B10 | 11 nM | 6.9 mM | – |
